{"source": "the DeepSol protein solubility set", "data": [{"test": "soluble on expression in E. coli; label from the status in PepcDB or PDB records", "values": [{"sequence": "TPTRFLVAFDGSATSRKTVEMVSRSPLLQGMQAHVLTAGSDAGEARQALQWAREQLAQGGFDAITHHAAERPADALAAYAGQHGIDMLVMGAYGHSRIRQLVLGSTTTEILSRVSLAVLILR", "soluble on expression in E. coli": "not soluble"}, {"sequence": "TSALIERIDAIIVDLPTIRPHKLAMHTMQQQTLVVLRVRCSDGVEGIGEATTIGGLAYGYESPEGIKANIDAHLAPALIGLAADNINAAMLKLDALAKGNTFAKSGIESALLDAQGKRLGLPVSELLGGRVRDSLEVAWTLASGDTARDIAEARHMLEIRRHRVFKLKIGANPVEQNLKHVVTIKRELGDSASVRVDVNQYWDESQAIRACQVLGDNGIDLIEQPISRINRGGQVRLNQRTPAPIMADESIESVEDAFSLAADGAASIFALKIAKNGGPRAVLRTAQIAEAAGIGLYGGTMLEGSIGTLASAHAFLTLRQLTWGTELFGPLLLTEEIVNEPPQYRDFQLHIPRTPGLGLTLDEARLARFARR", "soluble on expression in E. coli": "soluble"}, {"sequence": "TSITPSSQDICRICHCEGDDESPLITPCHCTGSLHFVHQACLQQWIKSSDTRCCELCKYEFIMETKL", "soluble on expression in E. coli": "soluble"}, {"sequence": "TSLFAQEIRLSKRHEEIVSQRLMLLQQMENKLGDQHTEKASQLQTVETAFKRNLSLLKDIEAAEKSLQTRIHPLPRPEVVSLETRYWASV", "soluble on expression in E. coli": "soluble"}, {"sequence": "TSLFTTADHYHTPLGPDGTPHAFFEALRDEAETTPIGWSEAYGGHWVVAGYKEIQAVIQNTKAFSNKGVTFPRYETGEFELMMAGQDDPVHKKYRQLVAKPFSPEATDLFTEQLRQSTNDLIDARIELGEGDAATWLANEIPARLTAILLGLPPEDGDTYRRWVWAITHVENPEEGAEIFAELVAHARTLIAERRTNPGNDIMSRVIMSKIDGESLSEDDLIGFFTILLLGGIDATARFLSSVFWRLAWDIELRRRLIAHPELIPNAVDELLRFYGPAMVGRLVTQEVTVGDITMKPGQTAMLWFPIASRDRSAFDSPDNIVIERTPNRHLSLGHGIHRCLGAHLIRVEARVAITEFLKRIPEFSLDPNKECEWLMGQVAGMLHVPIIFPKGKRLSE", "soluble on expression in E. coli": "soluble"}, {"sequence": "TSTMTDTVFSNSSNRWMYPSDRPLQSNDKEQLQAGWSVHPGGQPDRQRKQEELTDEEKEIINRVIARAEKMEEMEQERIGRLVDRLENMRKNVAGDGVNRCILCGEQLGMLGSACVVCEDCKKNVCTKCGVETNNRLHSVWLCKICIEQREVWKRSGAWFFKGFPKQVLPQPMPIKKTKPQQPVSEPAAPEQPAPEPKHPARAPARGDSEDRRGPGQKTGPDPASAPGRGNYGPPVRRASEARMSSSSRDSESWDHSGGAGDSSRSPAGLRRANSVQASRPAPGSVQSPAPPQPGQPGTPGGSRPGPGPAGRFPDQKPEVAPSDPGTTAPPREERTGGVGGYPAVGAREDRMSHPSGPYSQASAAAPQPAAARQPPPPEEEEEEANSYDSDEATTLGALEFSLLYDQDNSSLQCTIIKAKGLKPMDSNGLADPYVKLHLLPGASKSNKLRTKTLRNTRNPIWNETLVYHGITDEDMQRKTLRISVCDEDKFGHNEFIGETRFSLKKLKPNQRKNFNICLERVIPMKRAGTTGSARGMALYEEEQVERVGDIEERGKILVSLMYSTQQGGLIVGIIRCVHLAAMDANGYSDPFVKLWLKPDMGKKAKHKTQIKKKTLNPEFNEEFFYDIKHSDLAKKSLDISVWDYDIGKSNDYIGGCQLGISAKGERLKHWYECLKNKDKKIERWHQLQNENHVSSD", "soluble on expression in E. coli": "soluble"}, {"sequence": "TTEEKKEEFLATVIDSVGDGVIVIDLDGRIALMNPAAEEISGISRRQAVGHRFALVFHREAVLREMVGKTATSGMTISDHENIVIRKLKQLTPVSATTFPLMLPHGETTGTILVLRD", "soluble on expression in E. coli": "not soluble"}, {"sequence": "TTFFGRETAFFNGTEKLGRKFSLPVVYMDVEKTGHDVFTGTIKLLHHPQDDSPEGSITEEYVRLMETTIRRDPSQWLWSHRRWKRPRLHNTRQL", "soluble on expression in E. coli": "not soluble"}, {"sequence": "TTHFTVADRWGNVVSYTTTIEQLFGTGIMVPDYGVILNNELTDFDAIPGGANEVQPNKRPLSSMTPTILFKDDKPVLTVGSPGGATIISSVLQTILYHIEYGMELKAAVEEPRIYTNSMSSYRYEDGVPKDVLSKLNGMGHKFGTSPVDIGNVQSISIDHENGTFKGVADSSRNGAAIGINLKRKLEHHHHHH", "soluble on expression in E. coli": "soluble"}, {"sequence": "TTLASIGKDIIEDADGIAMPHQWLEGNLPVSAKCTVCDKTCGSVLRLQDWRCLWCKAMVHTSCKESLLTKC", "soluble on expression in E. coli": "soluble"}, {"sequence": "VAKPKKTQPAATAPRVDVFDAKGKPKTVDASALRIAFADGRSLLVSLPDTADGAITLVAEHADAATHAMLALRPEHHDSITLRIEAEPAAEAEDADDALAGAEMLTLDLTVQHGDALKAAARKALPKQKDIEAWIAPALFADAQLNVRFVDEEEGRTLNHTYRGKDYATNVLTFSYAETEDDPVAADIVLCCPVVEQEAKDQGKPLRAHYAHLIVHGALHAQGYDHEDPAQAEEMEGIETEVLAGLGFPDPYADR", "soluble on expression in E. coli": "soluble"}, {"sequence": "VALTVYYPPRVVSLEEPELRLEHCIEFVVRGNPPPTLHWLHNGQPLRESKIIHVEYYQEGEISEGCLLFNKPTHYNNGNYTLIAKNPLGTANQTINGHFLKEPFPVDEVSPTPPITVT", "soluble on expression in E. coli": "soluble"}, {"sequence": "VAPLGLSVPSDVELPPTAKMHAIIERTASFVCRQGAQFEIMLKAKQARNSQFDFLRFDHYLNPYYKFIQKAMKEGRYTVLAENKSDEKKKSGVS", "soluble on expression in E. coli": "soluble"}, {"sequence": "VCQILEVDRSTYHYKSRRPGQASLESKIKEICQTRVRYGYRRVHVLLRREGWLINQKKTRRIYRELGLQLRNKTPKRRVRAKLRDDRRDATHPNETWAMDFVHDQLATGNKIRVLTVVDLFSRYSPVLDPRFSYRAENVVQTLEHTWAAVGYPKTIRVDQGSEFISRELDLWAYSNGVTLDFSRPGKPTDNAFIEAFNGRFRAECLNTHWFLTLDDARSKLEDWRRYYNEQRPHGAIGNRPPITLHNRDSDPSSPS", "soluble on expression in E. coli": "soluble"}, {"sequence": "VDREQLVQKARLAEQAERYDDMAAAMKNVTELNEPLSNEERNLLSVAYKNVVGARRSSWRVISSIEQKTSADGNEKKIEMVRAYREKIEKELEAVCQDVLSLLDNYLIKNCSETQYESKVFYLKMKGDYYRYLAEVATGEKRATVVESSEKAYSEAHEISKEHMQPTHPIRLGLALNYSVFYYEIQNAPEQACHLAKTAFDDAIAELDTLNEDSYKDSTLIMQLLRDNLTLWTSDQQDDDGGEGNN", "soluble on expression in E. coli": "soluble"}, {"sequence": "VERMYDVTPPGVVMGLAWTAMGGSTLFVETSLRRPQDKDAKGDKDGSLEVTGQLGEVMKESARIAYTFARAFLMQHAPANDYLVTSHIHLHVPEGATPKDGPSAGCTIVTALLSLAMGRPVRQNLAMTGEVSLTGKILPVGGIKEKTIAAKRAGVTCIVLPAENKKDFYDLAAFITEGLEVHFVEHYREIFDIAFPDEQAEALAVER", "soluble on expression in E. coli": "soluble"}, {"sequence": "VFIDESKEHLQTCNEKLLLLEKDPTDLQLVHDIFRAAHTLKGMSATMGYTDLAHLTHLLENVLDAIRNGDMEVTSDWLDILFEALDHLETMVQSIIDGGDGKRDISEVSAKLDVNGAHAESAASAEPAEAQSSASDWEYDEFERTVIQEAEEQGFKRYEIKISLNENCMLKAVRVYMVFEKLNEVGEVAKTIPSAEVLETEDFGTDFQVCFLTHQSAEDIEQLINGVSEIEHVEVIQGAPLTSAEKPEESKQEDSPAAAVPANEEKQKQPAKNDEQAKHSAGGSKTIRVNIDRLDSLMNLFEELVIDRGRLEQIAKELEHNELTETVERMTRISGDLQSIILNMRMVPVETVFNRFPRMIRQLQKELNKKIELSIIGAETELDRTVIDEIGDPLVHLIRNSIDHGIEAPETRLQKGKPESGKVVLKAYHSGNHVFIEVEDDGAGLNRKKILEKPLERVITEKEAETLEDNQIYELIFAPGFSTADQISDISGRGVGLDVVKNKLESLGGSVSVKSAEGQGSLFSIQLPLTLSIISVLLIKLEEETFAIPISSIIETAVIDRKDILQTHDREVIDFRGHIVPVVYLKEEFKIEDTRKDAEQLHIIVVKKGDKPTAFVVDSFIGQQEVVLKSLGDYLTNVFAISGATILGDGEVALIID", "soluble on expression in E. coli": "not soluble"}, {"sequence": "VGTIDQLVKRVIEGSLSPKERTLLKEDPAYWFLSDENSLEYKYYKLKLAEMQR", "soluble on expression in E. coli": "soluble"}, {"sequence": "VGTRSKSRTRQLKQSNGCTATTSGASDRRRRARRRTAPAWLREDEWLRHHLPHPPRQLSRCLHRRRRSACHHRYSRRTPKGGLPMTSSLVPISEARAHLSRLVRESADDDVVLMNHGRPAAILISAERYESLMEELEDLRDRLSVHEREHVTMPLDKLGAELGVDIGRV", "soluble on expression in E. coli": "not soluble"}, {"sequence": "VISCDDVPEDLETDHLFSSQMVAVVAPEHELAQREAITFDEFFEHELVMFQHGYFHREFLDHVSEEHGFSMKSSFETNLLPLILSIVRQEFAITALLELVTQNEKGVVGIPFHPPVTLDLALAWRKEGYLSIADRTFIDFVKRYV", "soluble on expression in E. coli": "not soluble"}, {"sequence": "VKIELTVNGLKIQAQYQNEEIENVHKPLLHMLAALQTVNPQRRTVVFLCAPPGTGKSTLTTFWEYLAQQDPELPAIQTLPMDGFHHYNSWLDAHQLRPFKGAPETFDVAKLTENLRQVVEGDCTWPQYDRQKHDPVEDALHVTAPLVIVEGNWLLLDDEKWLELASFCDFSIFIHAPAQILRERLISRKIAGGLTRQVAEAFYARTDGPNVERVLMNSRQANLIVEMTEEGRYHFTS", "soluble on expression in E. coli": "soluble"}, {"sequence": "VKLVIDLLGAQTRSHLRGIGRYTRELTKALLRQAGEAHAIHLVLHAPLEQASDALIAEFGALLPRARIHLLRLPRHTSEHLTGNTWRHHAASRLSRYGLTCLDADVVWHSSVFEGYDEDGVLPDAPLFHTNRVATLYDLIPLHDPEVFLPGSLPKAWYERRSAFLSSCDLLFCLSEWTAQEAVQRLHLDPERLVVIGGGVDSNFRPLVFDAQQRGNLLARFSITRPYVLYNGGLDQRKNVPALLRAFALLPMAIRQRHQLVVLGDDREVHRPMMALCRQLGLDQQEVVFTGRVNDSDLVALYGLCALFVFPSRLEGFGLPVLEAMACGAPTLCSDAASLPEVAGRQDILFPPEDHVALSARMSQVLDDPQWLQSLRDYGLRRATAFTWDRVAQRALDALTRLQVRSSEMKSQRVSEVSPATHTETAAPEMLPITEIQLVTDLAALPGDASRDDLAQAAFSICSMRVAPQAPQWLVDVSQIAKTDIGTGTSRVTRSILREWLSTPPPGVCIVPVYLREGQYHYARSFTAQVLGLVSETPQEGIVMVYPGDVFVGLDWAPEAINAARARLQDWRRVGVATCFVVHDLLPMTLPDCFHPYSRNLFEQWLRTVAHLADAIACISATTAEVLSRWLQDTTVDYQFGIPPQVKHFPLGVSFPEVSTAQEAIREELRTALVMRPTLLIVGTLEPRKGHVHALRICEQLWEQGEDVNLVVVGQRGWSEQALVMRLTRHPEVGRRLFWLSDAADAELSALYVHATALLALSEGEGYGLPLLEAAHFRLPILARPLPVFLEIMADYPHYLDGTAPDTWSATVAQWLHASDRPISRPVPIASWKESAQQLADIVNDCRFLLDSKKLSAPLK", "soluble on expression in E. coli": "soluble"}, {"sequence": "VKRGLKPIVGLNQHIQQISPEQMGIRLDPDSLPIELRELANKHNAMLDRLQTGFRRLSEFSSDIAHELKTPLTNITTQNQVILGACRTSEEYQDAIASTLEELNRITKTINDLLYIAKAENKLIHRHDEVFAVQEEIDRLVAYFEILAEDAEVRIVSSGDGQLYM", "soluble on expression in E. coli": "not soluble"}, {"sequence": "VLLAIDVRNTHTVVGLLSGMKEHAKVVQQWRIRTESEVTADELALTIDGLIGEDSERLTGTAALSTVPSVLHEVRIMLDQYWPSVPHVLIEPGVRTGIPLLVDNPKEVGADRIVNCLAAYDRFRKAAIVVDFGSSICVDVVSAKGEFLGGAIAPGVQVSSDAAAARSAALRRVELARPRSVVGKNTVECMQAGAVFGFAGLVDGLVGRIREDVSGFSVDHDVAIVATGHTAPLLLPELHTVDHYDQHLTLQGLRLVFERNLEVQRGRLKTAR", "soluble on expression in E. coli": "soluble"}, {"sequence": "VNFDDIASSENLLHLTANRPKMPGRRLPG", "soluble on expression in E. coli": "soluble"}]}]}
